Experimental data: US20220267435A1

Biological target: CD19 (UniProt P15391)
Test: cell-based or functional assay

Sequence of UniProt P15391 (P15391 20-556 limits assumed): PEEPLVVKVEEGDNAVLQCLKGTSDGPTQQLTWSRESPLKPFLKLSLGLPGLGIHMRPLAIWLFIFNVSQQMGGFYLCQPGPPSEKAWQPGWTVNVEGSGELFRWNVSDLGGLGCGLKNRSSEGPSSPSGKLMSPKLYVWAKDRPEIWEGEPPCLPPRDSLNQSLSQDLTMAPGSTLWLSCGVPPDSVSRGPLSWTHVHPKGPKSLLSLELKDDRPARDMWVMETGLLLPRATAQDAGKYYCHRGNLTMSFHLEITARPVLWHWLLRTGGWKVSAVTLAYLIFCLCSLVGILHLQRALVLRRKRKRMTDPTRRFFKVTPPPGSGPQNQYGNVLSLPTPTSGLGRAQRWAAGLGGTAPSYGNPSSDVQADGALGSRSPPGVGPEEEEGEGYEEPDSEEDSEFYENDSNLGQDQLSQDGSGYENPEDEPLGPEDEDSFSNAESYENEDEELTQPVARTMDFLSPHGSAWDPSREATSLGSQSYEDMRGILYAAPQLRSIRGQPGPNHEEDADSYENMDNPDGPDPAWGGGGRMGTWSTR

FMC63-BG concentration at the peak of SNAP-synNotch activation (TagBFP): 0.25 µg/mL | FMC63-BG concentration at which SNAP-synNotch activation is completely inhibited (hook effect): 10 µg/mL | TagBFP MFI; 0.01 million SNAP-synNotch cells, 0.01 million Raji cells, 0.1 µg/mL FMC63-BG, 48 h: 1820 MFI | TagBFP MFI; 0.01 million SNAP-synNotch cells, 0.01 million Raji cells, 1.0 µg/mL FMC63-BG, 48 h: 806 MFI | TagBFP MFI; 0.01 million SNAP-synNotch cells, 0.1 million Raji cells, 0.1 µg/mL FMC63-BG, 48 h: 3400 MFI | TagBFP MFI; 0.01 million SNAP-synNotch cells, 0.1 million Raji cells, 1.0 µg/mL FMC63-BG, 48 h: 2470 MFI | TagBFP MFI; 0.01 million SNAP-synNotch cells, 0.5 million Raji cells, 0.1 µg/mL FMC63-BG, 48 h: 1810 MFI | TagBFP MFI; 0.01 million SNAP-synNotch cells, 0.5 million Raji cells, 1.0 µg/mL FMC63-BG, 48 h: 5350 MFI | TagBFP MFI; 0.01 million SNAP-synNotch cells, 1 million Raji cells, 0.1 µg/mL FMC63-BG, 48 h: 1520 MFI | TagBFP MFI; 0.01 million SNAP-synNotch cells, 1 million Raji cells, 1.0 µg/mL FMC63-BG, 48 h: 4430 MFI | TagBFP MFI; 0.1 million SNAP-synNotch cells, 0.01 million Raji cells, 0.1 µg/mL FMC63-BG, 48 h: 1020 MFI | TagBFP MFI; 0.1 million SNAP-synNotch cells, 0.01 million Raji cells, 1.0 µg/mL FMC63-BG, 48 h: 984 MFI | TagBFP MFI; 0.1 million SNAP-synNotch cells, 0.1 million Raji cells, 0.1 µg/mL FMC63-BG, 48 h: 2540 MFI | TagBFP MFI; 0.1 million SNAP-synNotch cells, 0.1 million Raji cells, 1.0 µg/mL FMC63-BG, 48 h: 2260 MFI | TagBFP MFI; 0.1 million SNAP-synNotch cells, 0.5 million Raji cells, 0.1 µg/mL FMC63-BG, 48 h: 1940 MFI | TagBFP MFI; 0.1 million SNAP-synNotch cells, 0.5 million Raji cells, 1.0 µg/mL FMC63-BG, 48 h: 4570 MFI | TagBFP MFI; 0.1 million SNAP-synNotch cells, 1 million Raji cells, 0.1 µg/mL FMC63-BG, 48 h: 1180 MFI | TagBFP MFI; 0.1 million SNAP-synNotch cells, 1 million Raji cells, 1.0 µg/mL FMC63-BG, 48 h: 4220 MFI | TagBFP MFI; 0.5 million SNAP-synNotch cells, 0.01 million Raji cells, 0.1 µg/mL FMC63-BG, 48 h: 732 MFI | TagBFP MFI; 0.5 million SNAP-synNotch cells, 0.01 million Raji cells, 1.0 µg/mL FMC63-BG, 48 h: 667 MFI | TagBFP MFI; 0.5 million SNAP-synNotch cells, 0.1 million Raji cells, 0.1 µg/mL FMC63-BG, 48 h: 1570 MFI | TagBFP MFI; 0.5 million SNAP-synNotch cells, 0.1 million Raji cells, 1.0 µg/mL FMC63-BG, 48 h: 1490 MFI | TagBFP MFI; 0.5 million SNAP-synNotch cells, 0.5 million Raji cells, 0.1 µg/mL FMC63-BG, 48 h: 1120 MFI | TagBFP MFI; 0.5 million SNAP-synNotch cells, 0.5 million Raji cells, 1.0 µg/mL FMC63-BG, 48 h: 2680 MFI | TagBFP MFI; 0.5 million SNAP-synNotch cells, 1 million Raji cells, 0.1 µg/mL FMC63-BG, 48 h: 955 MFI | TagBFP MFI; 0.5 million SNAP-synNotch cells, 1 million Raji cells, 1.0 µg/mL FMC63-BG, 48 h: 2880 MFI | TagBFP MFI; 1 million SNAP-synNotch cells, 0.01 million Raji cells, 0.1 µg/mL FMC63-BG, 48 h: 550 MFI | TagBFP MFI; 1 million SNAP-synNotch cells, 0.01 million Raji cells, 1.0 µg/mL FMC63-BG, 48 h: 519 MFI | TagBFP MFI; 1 million SNAP-synNotch cells, 0.1 million Raji cells, 0.1 µg/mL FMC63-BG, 48 h: 1160 MFI | TagBFP MFI; 1 million SNAP-synNotch cells, 0.1 million Raji cells, 1.0 µg/mL FMC63-BG, 48 h: 1220 MFI | TagBFP MFI; 1 million SNAP-synNotch cells, 0.5 million Raji cells, 0.1 µg/mL FMC63-BG, 48 h: 979 MFI | TagBFP MFI; 1 million SNAP-synNotch cells, 0.5 million Raji cells, 1.0 µg/mL FMC63-BG, 48 h: 1810 MFI | TagBFP MFI; 1 million SNAP-synNotch cells, 1 million Raji cells, 0.1 µg/mL FMC63-BG, 48 h: 748 MFI | TagBFP MFI; 1 million SNAP-synNotch cells, 1 million Raji cells, 1.0 µg/mL FMC63-BG, 48 h: 1970 MFI | lowest FMC63-BG concentration with significant SNAP-synNotch activation (TagBFP): 0.04 µg/mL
Substance: BG-conjugated FMC63 antibody
